The text below walks through data of the RNAGym collection of RNA variant scans (doi:10.1101/gr.219683.116).

B1: mRNA-splicing (parent)
chain: AGUUGCUGCUGGGAGCUCCAGCACAGUGAAAUGGACAGAAGGGCAGAGCAA

The variants in the data set derive from B1. The data set is described as follows: exon inclusion enrichment index; higher = more inclusion; WT1 exon 5 minigene, HEK293.
For AGUUAUAUAUGGGAGCUCCAGCACAGUGAAAUGGACGCAAGGGCAGAGCAA [G5A C6U U7A G8U C9A A37G G38C], the “exon inclusion enrichment index” value is 0.113.

In the case of AGUUUCUUUUGGGAUUUCCAGCACAGUGAAAUGGACAGAAGGGCAGAGCAA [G5U G8U C9U G15U C16U], the “exon inclusion enrichment index” value is 0.0287.

For the variant AGUUUCUUUUGGGAGCUCCAGCACAGUGCCAUGGACAGAAGGGCAGAGCAA [G5U G8U C9U A29C A30C], the “exon inclusion enrichment index” value was 0.344.

Take AGUUCUUCUCGGGAGCUCCAGCACAGUGAAUUGGACAGAAGGGCAGAGCAA [G5C C6U G8C C9U U10C A31U]: the “exon inclusion enrichment index” value amounted to 1.74.

For AGUUGAAGAAGGGAGCUCCAGCACAGUGCCAUGGACAGAAGGGCAGAGCAA [C6A U7A C9A U10A A29C A30C], the “exon inclusion enrichment index” value is 1.17.

With AGUUGCUGCUGGGAGCUCCAGCACAGUGAAAUGGACAGAAUUGCAGAGCAA [G41U G42U], the “exon inclusion enrichment index” value was 0.192.

On to AGUUCACACAGGGAGCUCCAGCACAGUGAAAUGGACAGAAGGCCAGAGCAA [G5C C6A U7C G8A U10A G43C], for which the “exon inclusion enrichment index” value came out at 0.238.

Take AGUUCUUCUCGGGUACUCCAGCACAGUGAAAUGGACAGAAGGGCAGAGCAA [G5C C6U G8C C9U U10C A14U G15A]: the “exon inclusion enrichment index” value came out at 0.472.

As to AGUUACCACCGGGAGCUCCAGCACAGUGUCAUGGACAGAAGGGCAGAGCAA [G5A U7C G8A U10C A29U A30C], the “exon inclusion enrichment index” value is 1.98.

In the case of AGUUAUAUAUGGAAGCUCCAGCACAGUGAAAUGGACAGAAGGGCAGAGCAA [G5A C6U U7A G8U C9A G13A], the “exon inclusion enrichment index” value stood at 0.144.

Regarding AGUUUCUUUUGGGAGCUCCGCCACAGUGAAAUGGACAGAAGGGCAGAGCAA [G5U G8U C9U A20G G21C], the “exon inclusion enrichment index” value is 0.187.

For the variant AGUUAUAUAUGGGAGCUCCAGCACAGUGAAAUGGAUCGAAGGGCAGAGCAA [G5A C6U U7A G8U C9A C36U A37C], the “exon inclusion enrichment index” value is 0.0296.

Turning to AGUUGAAGAAGGGAAAUCCAGCACAGUGAAAUGGACAGAAGGGCAGAGCAA [C6A U7A C9A U10A G15A C16A], the “exon inclusion enrichment index” value came to 0.363.

For AGUUAUAUAUGGGAGCUCCAGCACAGUGCGAUGGACAGAAGGGCAGAGCAA [G5A C6U U7A G8U C9A A29C A30G], the “exon inclusion enrichment index” value came to 0.219.

On to AGUUUCUUUUGGGGUCUCCAGCACAGUGAAAUGGACAGAAGGGCAGAGCAA [G5U G8U C9U A14G G15U], for which the “exon inclusion enrichment index” value stood at 0.0063.

Take AGUUGACGACGGGAGCUCCAGCACAGUGUCAUGGACAGAAGGGCAGAGCAA [C6A U7C C9A U10C A29U A30C]: the “exon inclusion enrichment index” value is 2.97.

As for AGUUAUAUAUGGGACGUCCAGCACAGUGAAAUGGACAGAAGGGCAGAGCAA [G5A C6U U7A G8U C9A G15C C16G], the “exon inclusion enrichment index” value is 0.0723.

As to AGUUCGCGCCGGGAGCUCCAGCACAGUGAAAUGGACAGAAGGGCUCAGCAA [G5C C6G U7C U10C A45U G46C], the “exon inclusion enrichment index” value was 2.33.

On to AGUUGACGACGGCAGCUCCAGCACAGUGAAAUGGACAGAAGGGCAGAGCAA [C6A U7C C9A U10C G13C], for which the “exon inclusion enrichment index” value turned out to be 2.83.

As for AGUUCUUCUCACGAGCUCCAGCACAGUGAAAUGGACAGAAGGGCAGAGCAA [G5C C6U G8C C9U U10C G11A G12C], the “exon inclusion enrichment index” value came to 0.41.

As for AGUUGCUGCUGGGAGCUCCAUGACAGUGAAAUGGACAGAAGGGCAGAGCAA [G21U C22G], the “exon inclusion enrichment index” value is 2.39.

AGUUCGCGCCGGGAGCUCCAGCACAGUGAAAUGGAUGGAAGGGCAGAGCAA [G5C C6G U7C U10C C36U A37G]: the “exon inclusion enrichment index” value is 2.77.

Consider AGUUACCACCGGACGCUCCAGCACAGUGAAAUGGACAGAAGGGCAGAGCAA [G5A U7C G8A U10C G13A A14C], for which the “exon inclusion enrichment index” value is 2.98.

As to AGUUUCUUUUGGGAGCUGGAGCACAGUGAAAUGGACAGAAGGGCAGAGCAA [G5U G8U C9U C18G C19G], the “exon inclusion enrichment index” value is 0.195.

As for AGUUCUUCUCGGGAGCUCCAGCACAGUGAAAUGGACAGAAGGGCACAGCAA [G5C C6U G8C C9U U10C G46C], the “exon inclusion enrichment index” value worked out at 1.62.

Regarding AGUUCGCGCCGGGAGCUCCAGCACAGUGAAAUGGACAGAAGUACAGAGCAA [G5C C6G U7C U10C G42U G43A], the “exon inclusion enrichment index” value came to 4.08.

Turning to AGUUACCACCGGGAGCUCCAGCACAGUGAAAUUAACAGAAGGGCAGAGCAA [G5A U7C G8A U10C G33U G34A], the “exon inclusion enrichment index” value was 0.441.

With AGUUAGGGAUGGGAGCUCCAGCACAGUGAAAAGGACAGAAGGGCAGAGCAA [G5A C6G U7G C9A U32A], the “exon inclusion enrichment index” value worked out at 0.000886.

With AGUUCACACAGGGAGCUCCAGCACAGUGAAAUGGACAGAAGGGUAGAGCAA [G5C C6A U7C G8A U10A C44U], the “exon inclusion enrichment index” value is 0.0254.

Take AGUUGAAGAAGGGAGCUCCAGCACAGUGACCUGGACAGAAGGGCAGAGCAA [C6A U7A C9A U10A A30C A31C]: the “exon inclusion enrichment index” value stood at 1.38.

For AGUUCAUCUCGGGAGCUCCAGCACAGUGAAAUGGACAGAAGGGCAGAGCAA [G5C C6A G8C C9U U10C], the “exon inclusion enrichment index” value amounted to 2.4.

As to AGUUUCUUUUGGGAGCUCCAGCACAGUGAAAUGGACAGCAGGGCAGAGCAA [G5U G8U C9U A39C], the “exon inclusion enrichment index” value worked out at 0.0249.

For the variant AGUUCUUCUCGGGAGCUCCAGGCCAGUGAAAUGGACAGAAGGGCAGAGCAA [G5C C6U G8C C9U U10C C22G A23C], the “exon inclusion enrichment index” value stood at 0.747.

Turning to AGUUCACACAGGGAGCUCCAGCACAGUGAAAUGGACAGAAGGGCAGUGCAA [G5C C6A U7C G8A U10A A47U], the “exon inclusion enrichment index” value amounted to 0.108.

In the case of AGUUCACACAGGGAAUUCCAGCACAGUGAAAUGGACAGAAGGGCAGAGCAA [G5C C6A U7C G8A U10A G15A C16U], the “exon inclusion enrichment index” value came out at 0.0227.

As for AGUUGACGACGGGAGCUCCAGCACAGUGAAAUGGACAGAAGCGCAGAGCAA [C6A U7C C9A U10C G42C], the “exon inclusion enrichment index” value is 4.02.

For the variant AGUUGAAGAAGGGAGCUCCAGCACAGUCAAAUGGACAGAAGGGCAGAGCAA [C6A U7A C9A U10A G28C], the “exon inclusion enrichment index” value came to 0.528.

Regarding AGUUAGGGAUGGGAGCUCCAGCACAGUGAAAUGGACAGAAGGGCAGCUCAA [G5A C6G U7G C9A A47C G48U], the “exon inclusion enrichment index” value worked out at 0.00274.

With AGUUCACACAGGGAGCUCCAGCACAGUGAAAUUGACAGAAGGGCAGAGCAA [G5C C6A U7C G8A U10A G33U], the “exon inclusion enrichment index” value was found to be 0.0519.

As to AGUUGAAGAAGGGAGCUCCAGCACAGUGAAAUGGACGUAAGGGCAGAGCAA [C6A U7A C9A U10A A37G G38U], the “exon inclusion enrichment index” value is 0.29.

As for AGUUCACACAGGGAGCUCCAGCACAGUGAAAUGGAUUGAAGGGCAGAGCAA [G5C C6A U7C G8A U10A C36U A37U], the “exon inclusion enrichment index” value stood at 0.0725.

As to AGUUCGCACAGGGAGCUCCAGCACAGUGAAAUGGACAGAAGGGCAGAGCAA [G5C C6G U7C G8A U10A], the “exon inclusion enrichment index” value is 0.449.

AGUUCACACAGGGAGCUCGCGCACAGUGAAAUGGACAGAAGGGCAGAGCAA [G5C C6A U7C G8A U10A C19G A20C]: the “exon inclusion enrichment index” value was 0.111.

Consider AGUUGCUGCUGGGAGCUCAGGCACAGUGAAAUGGACAGAAGGGCAGAGCAA [C19A A20G], for which the “exon inclusion enrichment index” value was determined as 0.356.

Regarding AGUUCUUCUCGGGAGCUCCAGCACAGUGAACGGGACAGAAGGGCAGAGCAA [G5C C6U G8C C9U U10C A31C U32G], the “exon inclusion enrichment index” value worked out at 2.49.

Consider AGUUGACGACGGGAGCUCGCGCACAGUGAAAUGGACAGAAGGGCAGAGCAA [C6A U7C C9A U10C C19G A20C], for which the “exon inclusion enrichment index” value was determined as 3.87.

As for AGUUGACGACGGGAGCUCGGGCACAGUGAAAUGGACAGAAGGGCAGAGCAA [C6A U7C C9A U10C C19G A20G], the “exon inclusion enrichment index” value was 2.38.

In the case of AGUUGAAGAAGGGAGCUCCAGCACAGUGAAAUGAUCAGAAGGGCAGAGCAA [C6A U7A C9A U10A G34A A35U], the “exon inclusion enrichment index” value was found to be 0.216.

Regarding AGUUGACGACGGGAGUCCCAGCACAGUGAAAUGGACAGAAGGGCAGAGCAA [C6A U7C C9A U10C C16U U17C], the “exon inclusion enrichment index” value was determined as 2.51.

Consider AGUUUCUUUUGGGAGCUUGAGCACAGUGAAAUGGACAGAAGGGCAGAGCAA [G5U G8U C9U C18U C19G], for which the “exon inclusion enrichment index” value came to 0.0199.

With AGUUUCUUUUGGGAGCUCCAGCACACCGAAAUGGACAGAAGGGCAGAGCAA [G5U G8U C9U G26C U27C], the “exon inclusion enrichment index” value turned out to be 0.621.
